The text below walks through data of PMC4596477, “Interaction of Myosin Phosphatase Target Subunit (MYPT1) with Myosin Phosphatase-RhoA Interacting Protein (MRIP): A Role of Glutamic Acids in the Interaction” (PLoS ONE, 2015).

One may read the Kd as the free concentration of one partner at which half of the binding sites on the other are occupied at equilibrium, for simple one-to-one binding. Read a low Kd as a tighter complex. Usually stoichiometry N stands for the number of molecules, sites or subunits per partner or assembly.

In data set [1] the target is T1, MRIP^724-878 (Homo sapiens, UniProt Q6WCQ1).
T1 construct: MRIP^724-878 (residues 724–878; CC2-CC4); made in house; host or cells: Escherichia coli BL21 (DE3)
T1 sequence (Q6WCQ1 725-879): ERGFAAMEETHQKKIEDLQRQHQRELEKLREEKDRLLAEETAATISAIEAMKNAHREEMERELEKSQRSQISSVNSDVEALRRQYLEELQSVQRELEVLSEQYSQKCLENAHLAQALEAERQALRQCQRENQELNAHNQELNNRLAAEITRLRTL
Put plainly: AUC interaction of MYPT1 peptides (CC, LR and LR mutants) with MRIP^724-878. It is filed as binding. The following applies: s*lg(s*) graphs, pH 7.4, 20°C; for binding affinity toward MRIP^724-878, LR mutants: MRIP^724-878 with mutant LR peptide, 50 μM each, compared with wild-type LR; for main peak position of mixture with MRIP^724-878: excess mutant LR peptide for R992D/R993D and E996K, 50 μM each for others. The source says: To determine the minimal MRIP-binding region of MYPT1, AUC was employed to examine interactions between sub-domains of CCLR, CC (residues 924–990) and LR (residues 991–1030) with MRIP^724-878 (Fig 4A). CC is the putative coiled coil domain and LR contains 16 upstream amino acid residues (residues 991–1006) in addition to the leucine repeat (residues 1007–1028). MRIP^724-878 was chosen because of its good fit to a single component, single-species model. […] Global fitting of the mixture to a two-component model produced a good fit and the RMSD of the fit was 0.010 (Fig 4B; Fitting of CC).
The coiled coil is a common protein-protein interaction domain. The MRIP peptides in this study have putative coiled coil domains and are α-helical. In contrast, the MYPT1 peptide, LR is not α-helical even though it contains the leucine repeat. Thus, we hypothesized that charged residues of MYPT1 might participate in the MYPT1/MRIP interaction with its leucine residues. We generated various LR peptides representing mutations in charged residues (Fig 6A) and examined their bindings to MRIP^724-878 (Fig 6B).
Fig 6 Glutamic acids within LR enhance the MRIP-binding affinity. (A) Amino acid sequences of the wild-type LR (WT-LR) and mutant LR peptides. Charged residues are in bold, the leucine repeat is in Italic, and substitution mutations are underlined. (B) Time derivative s*lg(s*) graphs: Line, MRIP^724-878 alone (50 μM); filled-in circles, original mixture of MRIP^724-878/each mutant LR peptide (50 μM each except for R992D/R993D and E996K whose mixtures consisted of excess amount of the mutant LR peptides); open circles, a three-fold dilution of the original mixture. The molar mass of the complex differs slightly from that of MRIP^724-878 dimer (37.9 kDa vs 37.4 kDa), and thus the shift in the main peak position is not easily discernable in many cases.
(§1) The cDNA fragment encoding MRIP peptides were amplified using a full-length MRIP cDNA as a template with the following primer pairs: MRIP^545-878, 5’-[…]/5’[…]; MRIP^724-878, 5’-[…]/5’-[…]; MRIP^724-837, 5’-[…]/5’-[…]. The PCR products were ligated into pCR2.1-TOPO using the TA cloning system and sequenced in both directions. The IMPACT™ (Intein Mediated Purification with an Affinity Chitin-binding Tag) Kit (New England BioLabs) was used to express peptides in bacteria to obtain tag-free peptides. The PCR amplicon encoding MRIP peptides were fused in frame to the chitin binding domain of pTYB12 vector utilizing the NdeI/EcoRI restriction sites. The expression vectors for the MYPT1 peptides, CCLR (residues 924–1030), CC (residues 924–990), and LR (residues 991–1030) were constructed as described: In the reference literature, CCLR and LR were named CCLZ and LZ, respectively. Recombinant peptides were produced in Escherichia coli strain BL21 (DE3) and purified using chitin beads according to the manufacturer's protocol. For further purification, the eluent from chitin beads was loaded on a Vydac C8 reversed phase column and subjected to HPLC using an acetonitrile gradient. Purity and identity of the peptides were confirmed by polyacrylamide gel electrophoresis (PAGE) and mass spectrometry. For the mutagenesis study of LR, the wild-type and mutant LR peptides were synthesized, purified by reverse-phase HPLC, and lyophilized to dryness at the peptide core in Boston Biomedical Research Institute.
Sedimentation velocity experiments were done on a Beckman Instruments Optima XL-I analytical ultracentrifuge equipped with Rayleigh optics. The cells were equipped with sapphire windows and 12 mm charcoal-filled Epon centerpieces. Apparent sedimentation coefficient distribution patterns were computed by the time derivative method. Peptides were dialyzed against 50 mM potassium phosphate buffer (pH 7.4) containing 100 mM KCl, and 1 mM DTT at 4°C overnight and then subjected to AUC at 50,000 rpm and 20°C. […]

Data set [2] deals with the molecule itself. Put plainly: AUC; sedimentation velocity of each MRIP peptide alone, three-fold serial dilutions (MRIP^545-878 1.5–13.6 μM, MRIP^724-878 4.7–42.3 μM, MRIP^724-837 7.5–67.1 μM); 50 mM potassium phosphate pH 7.4, 100 mM KCl, 1 mM DTT, 50,000 rpm, 20°C; global fitting with SedAnal; constant of MRIP^724-837: dimer to monomers.
A short description of data set [3]: AUC sedimentation velocity of MRIP peptides alone (molar mass, sedimentation coefficient, oligomeric state). It is filed as physicochemical.
Description: The RMSD of the fit was 0.008.
as §1
Sedimentation velocity experiments were done on a Beckman Instruments Optima XL-I analytical ultracentrifuge equipped with Rayleigh optics. The cells were equipped with sapphire windows and 12 mm charcoal-filled Epon centerpieces. Apparent sedimentation coefficient distribution patterns were computed by the time derivative method. Peptides were dialyzed against 50 mM potassium phosphate buffer (pH 7.4) containing 100 mM KCl, and 1 mM DTT at 4°C overnight and then subjected to AUC at 50,000 rpm and 20°C. Molar mass was computed from sedimentation velocity profiles using SedAnal, which uses a nonlinear least-squares curve fitting algorithm to fit data to solutions of the differential equation (the Lamm equation) describing sedimentation. Fits were performed on time difference data to remove the time-independent systematic baseline components. Values of s and D produced by the fitting procedure were substituted into the Svedberg equation to obtain the molar mass of the protein, M: M=RT/(1−ν¯ρ)s20,wo/D20,wo where ρ is the density of the buffer and ν¯ is the partial specific volume of the protein. Sednterp was employed to compute values of ρ and ν¯ from the amino acid sequence.

Data set [4] deals with CCLR. Put plainly: AUC interaction of MRIP peptides with MYPT1 peptide CCLR (residues 924–1030). It is filed as binding. Particulars: equimolar mixtures (MRIP^545-878 14 μM each; MRIP^724-878 30 μM each; MRIP^724-837 67 μM each) and 3-, 9-fold dilutions, pH 7.4, 100 mM KCl, 20°C. The procedure: AUC was performed to examine the interactions of MRIP^545-878, MRIP^724-878, or MRIP^724-837 individually with the MYPT1 peptide (residues 924–1030) containing a putative coiled coil domain (CC) and the leucine repeat region (LR), designated as CCLR.
Fig 3 All MRIP peptides bind to the C-terminal region of MYPT1, CCLR (residues 924–1030). Concentration-normalized time derivative g(s*) graphs of the MRIP peptides by themselves and in equimolar mixtures: Lines, CCLR (30 μM); +, individual MRIP peptides by themselves (MRIP^545-878, 14 μM; MRIP^724-878, 50 μM; MRIP^724-837, 67 μM); black filled-in circles, original equimolar mixtures (MRIP^545-878, 14 μM each; MRIP^724-878, 30 μM each; MRIP^724-837, 67 μM each); open circles, 3-fold dilutions; gray filled-in circles, 9-fold dilutions.
as §1, with “For the mutagenesis study of LR, the wild-type and mutant LR peptides were synthesized, purified by reverse-phase HPLC, and lyophilized to dryness at the peptide core in Boston Biomedical Research Institute.” left out

For “EtriA: mutant LR in which glutamic acid residues 998–1000 were replaced by alanine (ERRISEMAAALKMLPDLKADNQRLKDENGALIRVISKLSK)”, the “binding affinity toward MRIP^724-878, LR mutants” value in data set [1] is recorded as “significantly decreased binding affinity”.
As to “E996K: mutant LR peptide with same length as wild-type, substitutions for charged residues (ERRISKMEEELKMLPDLKADNQRLKDENGALIRVISKLSK)”, the “main peak position of mixture with MRIP^724-878” value in data set [1] was “shifted to the right, indicating binding”.
For the molecule “LR^1001-1030: mutant LR peptide shorter than LR in length (LKMLPDLKADNQRLKDENGALIRVISKLSK)”, the “binding affinity toward MRIP^724-878, LR mutants” value in data set [1] is given as “decreased”.
Still for that read-out and setting: the value for “LR^997-1030: mutant LR peptide shorter than LR in length (MEEELKMLPDLKADNQRLKDENGALIRVISKLSK)” was “decreased”; that for “EtriQ: mutant LR in which glutamic acid residues 998–1000 were replaced by glutamine (ERRISEMQQQLKMLPDLKADNQRLKDENGALIRVISKLSK)” was “significantly decreased binding affinity”.
As to “R992D/R993D: mutant LR peptide with same length as wild-type, substitutions for charged residues (EDDISEMEEELKMLPDLKADNQRLKDENGALIRVISKLSK)”, in data set [1], the “main peak position of mixture with MRIP^724-878” value is listed as “shifted to the right, indicating binding”.
“LR^1007-1028: mutant LR peptide shorter than LR in length (LKADNQRLKDENGALIRVISKL)”: the “binding affinity toward MRIP^724-878, LR mutants” value in data set [1] was “decreased”.

B1: MRIP^724-837 (myosin phosphatase-RhoA interacting protein, residues 724–837; CC2-CC3) (domain or fragment, UniProt Q6WCQ1 724-837, looked up)
chain: CERGFAAMEETHQKKIEDLQRQHQRELEKLREEKDRLLAEETAATISAIEAMKNAHREEMERELEKSQRSQISSVNSDVEALRRQYLEELQSVQRELEVLSEQYSQKCLENAHL
notes: Monomer-dimer equilibrium in solution by AUC; source: E. coli BL21 (DE3), purified (chitin beads, C8 reversed-phase HPLC)
In the case of B1, in data set [2], the dissociation constant Kd was determined as 21 µM and the “stoichiometry N” value was determined as 2.

B2: MRIP^724-878 (myosin phosphatase-RhoA interacting protein, residues 724–878; CC2-CC4) (domain or fragment, UniProt Q6WCQ1 724-878, looked up)
chain: CERGFAAMEETHQKKIEDLQRQHQRELEKLREEKDRLLAEETAATISAIEAMKNAHREEMERELEKSQRSQISSVNSDVEALRRQYLEELQSVQRELEVLSEQYSQKCLENAHLAQALEAERQALRQCQRENQELNAHNQELNNRLAAEITRLRT
notes: Tight homodimer in solution by AUC; the forward primer puts an NdeI ATG before the codons GAGCGAGGGTTTGCAGCAATG; source: E. coli BL21 (DE3), purified (chitin beads, C8 reversed-phase HPLC)
Consider B2, for which the “stoichiometry N” value in data set [2] is 2.

B3: MRIP^545-878: recombinant tag-free MRIP peptide, residues 545–878; CC1-CC4 (protein)
chain: WAEFRPIQQALAQERVGGVGPADTHEPLRPEAEPGELERERARRREERRKRFGMLDATDGPGTEDAALRMEVDRSPGLPMSDLKTHNVHVEIEQRWHQVETTPLREEKQVPIAPVHLSSEDGGDRLSTHELTSLLEKELEQSQKEASDLLEQNRLLQDQLRVALGREQSAREGYVLQATCERGFAAMEETHQKKIEDLQRQHQRELEKLREEKDRLLAEETAATISAIEAMKNAHREEMERELEKSQRSQISSVNSDVEALRRQYLEELQSVQRELEVLSEQYSQKCLENAHLAQALEAERQALRQCQRENQELNAHNQELNNRLAAEITRLRT
modifications: left off: chitin-binding domain (IMPACT kit, pTYB12), N-terminal, cleaved
notes: recombinant tag-free MRIP peptide, residues 545–878; CC1-CC4
In the case of B3, the molar mass in data set [3] (AUC sedimentation velocity, SedAnal global fit to two components (main component), 1.5–13.6 μM, 50 mM potassium phosphate pH 7.4, 100 mM KCl, 1 mM DTT, 50,000 rpm, 20°C, CL 0.95, min, 38.1, max, 40.9) is 39.4 kDa. Moreover, the sedimentation coefficient in data set [3] (AUC sedimentation velocity, SedAnal global fit, two components (main component), 1.5–13.6 μM, pH 7.4, 100 mM KCl, 20°C, CL 0.95) came to 2.17±0.01 S. In addition, in data set [3] (AUC sedimentation velocity, pH 7.4, 100 mM KCl, 20°C), the “oligomeric state in solution” value is reported as “forms a monomer in solution”. In data set [3] (AUC, MRIP^545-878 1.5–13.6 μM, MRIP^724-878 4.7–42.3 μM, MRIP^724-837 7.5–67.1 μM, pH 7.4, 20°C), the “concentration dependence of g(s*) curves” value was “no-concentration dependence and the presence of one species in solution”. Also, in data set [4], the “binding to CCLR (shift in g(s*) curves)” value was “bind to CCLR”.
